This data set relates to Yarrowia lipolytica. Description: Percent substrate conversion of desaturases and elongases expressed in Yarrowia lipolytica. It is filed as cell-based. To be noted: for Codon-Opt. Gene % Sub. Conv. / Native Gene % Sub. Conv.: percent substrate conversion; for Codon-Opt. Gene % Sub. Conv.: codon-optimized gene expressed in Y. lipolytica; for Native Gene % Sub. Conv.: expressed in Y. lipolytica; for percent (%) substrate conversion of the codon-optimized gene: transformants of strain Y2031, MM, 2 days. On the procedure:
The terms “conversion efficiency” and “percent substrate conversion” refer to the efficiency by which a particular enzyme (e.g., a desaturase or elongase) can convert substrate to product. The conversion efficiency is measured according to the following formula: ([product]/[substrate+product])*100, where ‘product’ includes the immediate product and all products in the pathway derived from it.
With respect to Δ12 desaturase, Applicants have made the surprising discovery that the Fusarium moniliforme Δ12 desaturase (encoded by SEQ ID NO:27) functions with greater efficiency than the native Yarrowia lipolytica Δ12 desaturase in producing 18:2 in Y. lipolytica (see WO 2005/047485). Specifically, expression of the F. moniliforme Δ12 desaturase under the control of the TEF promoter in Y. lipolytica was determined to produce higher levels of 18:2 (68% product accumulation of LA) than were previously attainable by expression of a chimeric gene encoding the Y. lipolytica Δ12 desaturase under the control of the TEF promoter (59% product accumulation of LA). This corresponds to a difference in percent substrate conversion (calculated as ([18:2+18:3]/[18:1+18:2+18:3])*100) of 85% versus 74%, respectively.
In the present invention, several desaturase and elongase genes from Table 5 were codon-optimized for expression in Yarrowia lipolytica, based on the host preferences described above. This was possible by first determining the Y. lipolytica codon usage profile (see WO 04/101757) and identifying those codons that were preferred. Then, for further optimization of gene expression in Y. lipolytica, the consensus sequence around the ‘ATG’ initiation codon was determined (i.e., ‘MAMMATGNHS’ (SEQ ID NO:356), wherein the nucleic acid degeneracy code used is as follows: M=A/C; S═C/G; H=A/C/T; and N=A/C/G/T). Table 7, below, compares the activity of native and codon-optimized genes when expressed in Y. lipolytica and provides details about each codon-optimized gene. % Sub. Conv. is the abbeviation for “percent substrate conversion” and Codon-Opt. is an abbreviation for “codon-optimized”.
Construct pDMW237 (FIG. 8C), an auto-replication plasmid comprising a chimeric FBAIN::1 g D9e::Pex20 gene, was transformed into Y. lipolytica Y2031 strain (Example 4) as described in the General Methods. Three transformants of Y2031 with pDMW237 were grown individually in MM media for two days and the cells were collected by centrifugation, lipids were extracted, and fatty acid methyl esters were prepared by trans-esterification, and subsequently analyzed with a Hewlett-Packard 6890 GC.
Construct pDMW297 was then used for transformation of strain Y2031 (Example 5) according to the General Methods. The transformant cells were plated onto MM selection media plates and maintained at 30° C. for 2 to 3 days. A total of 8 transformants grown on the MM plates were picked and re-streaked onto fresh MM plates. Once grown, these strains were individually inoculated into liquid MM at 30° C. and shaken at 250 rpm/min for 2 days. The cells were collected by centrifugation, lipids were extracted, and fatty acid methyl esters were prepared by trans-esterification, and subsequently analyzed with a Hewlett-Packard 6890 GC.

Setting [1] is: under the control of the TEF promoter in Y. lipolytica.

B1: M. alpina high affinity C18/20 elongase: GenBank AX464731; codon-optimized gene SEQ ID NO:19 (protein, listed as Mortierella alpina)
chain: MESIAPFLPSKMPQDLFMDLASAIGVRAAPYVDPLEAALVAQAEKYIPTIVHHTRGFLVAVESPLARELPLMNPFHVLLIVLAYLVTVFVGMQIMKNFERFEVKTFSLLHNFCLVSISAYMCGGILYEAYQANYGLFENAADHTFKGLPMAKMIWLFYFSKIMEFVDTMIMVLKKNNRQISFLHVYHHSSIFTIWWLVTFVAPNGEAYFSAALNSFIHVIMYGYYFLSALGFKQVSFIKFYITRSQMTQFCMMSVQSSWDMYAMKVLGRPGYPFFITALLWFYMWTMLGLFYNFYRKNAKLAKQAKADAAKEKARKLQ
modifications: misc_feature: synthetic elongase 1 (codon-optimized)
On to B1, for which the “Codon-Opt. Gene % Sub. Conv.” value was 47% and the “Native Gene % Sub. Conv.” value was 30%.

B2: Y. lipolytica Δ12 desaturase: native Yarrowia lipolytica Δ12 desaturase, SEQ ID NOs:23 and 24 (protein, listed as Yarrowia lipolytica)
chain: MDSTTQTNTGTGKVAVQPPTAFIKPIEKVSEPVYDTFGNEFTPPDYSIKDILDAIPQECYKRSYVKSYSYVARDCFFIAVFAYMAYAYLPLIPSASGRAVAWAMYSIVQGLFGTGLWVLAHECGHSAFSDSNTVNNVTGWVLHSSMLVPYYAWKLTHSMHHKSTGHLTRDMVFVPKDRKEFMENRGAHDWSELAEDAPLMTLYGLITQQVFGWPLYLLSYVTGQKYPKLNKWAVNHFNPNAPLFEKKDWFNIWISNVGIGITMSVIAYSINRWGLASVTLYYLIPYLWVNHWLVAITYLQHTDPTLPHYHADQWNFTRGAAATIDREFGFIGSFCFHDIIETHVLHHYVSRIPFYNARIATEKIKKVMGKHYRHDDTNFIKSLYTVARTCQFVEGKEGIQMFRNVNGVGVAPDGLPSKK
Turning to B2, under setting [1], the “percent substrate conversion (calculated as ([18:2+18:3]/[18:1+18:2+18:3])*100)” value was 74% and the “product accumulation of LA” value is reported as 59%.

B3: IgD9e: synthetic codon-optimized Δ9 elongase gene, SEQ ID NO:41 (protein)
chain: MALANDAGERIWAAVTDPEILIGTFSYLLLKPLLRNSGLVDEKKGAYRTSMIWYNVLLALFSALSFYVTATALGWDYGTGAWLRRQTGDTPQPLFQCPSPVWDSKLFTWTAKAFYYSKYVEYLDTAWLVLKGKRVSFLQAFHHFGAPWDVYLGIRLHNEGVWIFMFFNSFIHTIMYTYYGLTAAGYKFKAKPLITAMQICQFVGGFLLVWDYINVPCFNSDKGKLFSWAFNYAYVGSVFLLFCHFFYQDNLATKKSAKAGKQL
modifications: IgD9e: synthetic delta-9 elongase (codon-optimized for Yarrowia lipolytica)
B3: the “percent (%) substrate conversion of the codon-optimized gene” value is reported as “about 13%”.

B4: Isochrysis galbana Δ9 elongase: codon-optimized gene SEQ ID NO:41 (protein)
chain: MALANDAGERIWAAVTDPEILIGTFSYLLLKPLLRNSGLVDEKKGAYRTSMIWYNVLLALFSALSFYVTATALGWDYGTGAWLRRQTGDTPQPLFQCPSPVWDSKLFTWTAKAFYYSKYVEYLDTAWLVLKGKRVSFLQAFHHFGAPWDVYLGIRLHNEGVWIFMFFNSFIHTIMYTYYGLTAAGYKFKAKPLITAMQICQFVGGFLLVWDYINVPCFNSDKGKLFSWAFNYAYVGSVFLLFCHFFYQDNLATKKSAKAGKQL
modifications: IgD9e: synthetic delta-9 elongase (codon-optimized for Yarrowia lipolytica)
For B4, the “Codon-Opt. Gene % Sub. Conv.” value came out at 30%.

B5: S. diclina Δ17 desaturase: US 2003/0196217 A1; codon-optimized gene SEQ ID NO:16 (protein, listed as Saprolegnia diclina)
chain: MAEDKTKVEFPTLTELKHSIPNACFESNLGLSLYYTARAIFNASASAALLYAARSTPFIADNVLLHALVCATYIYVQGVIFWGFFTVGHDCGHSAFSRYHSVNFIIGCIMHSAILTPFESWRVTHRHHHKNTGNIDKDEIFYPHRSVKDLQDVRQWVYTLGGAWFVYLKVGYAPRTMSHFDPWDPLLLRRASAVIVSLGVWAAFFAAYAYLTYSLGFAVMGLYYYAPLFVFASFLVITTFLHHNDEATPWYGDSEWTYVKGNLSSVDRSYGAFVDNLSHHIGTHQVHHLFPIIPHYKLNEATKHFAAAYPHLVRRNDEPIITAFFKTAHLFVNYGAVPETAQIFTLKESAAAAKAKSD
modifications: misc_feature: synthetic delta-17 desaturase (codon-optimized)
Regarding B5, the “Codon-Opt. Gene % Sub. Conv.” value was determined as 45% and the “Native Gene % Sub. Conv.” value was found to be 23%.

B6: D8SF: completely corrected synthetic codon-optimized Δ8 desaturase gene, SEQ ID NO:48 (protein)
chain: MVKSKRQALPLTIDGTTYDVSAWVNFHPGGAEIIENYQGRDATDAFMVMHSQEAFDKLKRMPKINPSSELPPQAAVNEAQEDFRKLREELIATGMFDASPLWYSYKISTTLGLGVLGYFLMVQYQMYFIGAVLLGMHYQQMGWLSHDICHHQTFKNRNWNNLVGLVFGNGLQGFSVTWWKDRHNAHHSATNVQGHDPDIDNLPLLAWSEDDVTRASPISRKLIQFQQYYFLVICILLRFIWCFQSVLTVRSLKDRDNQFYRSQYKKEAIGLALHWTLKTLFHLFFMPSILTSLLVFFVSELVGGFGIAIVVFMNHYPLEKIGDSVWDGHGFSVGQIHETMNIRRGIITDWFFGGLNYQIEHHLWPTLPRHNLTAVSYQVEQLCQKHNLPYRNPLPHEGLVILLRYLAVFARMAEKQPAGKAL
modifications: D8SF: synthetic delta-8 desaturase (codon-optimized for Yarrowia lipolytica)
Take B6: the “percent (%) substrate conversion of the codon-optimized gene” value worked out at 75%.

B7: T. aureum C18/20 elongase: codon-optimized gene SEQ ID NO:22 (protein, listed as Thraustochytrium aureum)
chain: MANSSVWDDVVGRVETGVDQWMDGAKPYALTDGLPMMDVSTMLAFEVGYMAMLLFGIPIMKQMEKPFELKTIKLLHNLFLFGLSLYMCVETIRQAILGGYKVFGNDMEKGNESHAQGMSRIVYVFYVSKAYEFLDTAIMILCKKFNQVSFLHVYHHATIFAIWWAIAKYAPGGDAYFSVILNSFVHTVMYAYYFFSSQGFGFVKPIKPYITTLQMTQFMAMLVQSLYDYLFPCDYPQALVQLLGVYMITLLALFGNFFVQSYLKKPKKSKTN
modifications: misc_feature: synthetic elongase (codon-optimized)
Turning to B7, the “Codon-Opt. Gene % Sub. Conv.” value turned out to be 46% and the “Native Gene % Sub. Conv.” value is 33%.

B8: M. alpina Δ6 desaturase: GenBank AF465281; codon-optimized gene SEQ ID NO:3 (protein, listed as Mortierella alpina)
chain: MAAAPSVRTFTRAEVLNAEALNEGKKDAEAPFLMIIDNKVYDVREFVPDHPGGSVILTHVGKDGTDVFDTFHPEAAWETLANFYVGDIDESDRDIKNDDFAAEVRKLRTLFQSLGYYDSSKAYYAFKVSFNLCIWGLSTVIVAKWGQTSTLANVLSAALLGLFWQQCGWLAHDFLHHQVFQDRFWGDLFGAFLGGVCQGFSSSWWKDKHNTHHAAPNVHGEDPDIDTHPLLTWSEHALEMFSDVPDEELTRMWSRFMVLNQTWFYFPILSFARLSWCLQSILFVLPNGQAHKPSGARVPISLVEQLSLAMHWTWYLATMFLFIKDPVNMLVYFLVSQAVCGNLLAIVFSLNHNGMPVISKEEAVDMDFFTKQIITGRDVHPGLFANWFTGGLNYQIEHHLFPSMPRHNFSKIQPAVETLCKKYNVRYHTTGMIEGTAEVFSRLNEVSKATSKMGKAQ
modifications: misc_feature: synthetic delta-6 desaturase (codon-optimized)
With B8, the “Codon-Opt. Gene % Sub. Conv.” value is 42% and the “Native Gene % Sub. Conv.” value was 30%.

The record behind these values is US7588931B2, “High arachidonic acid producing strains of Yarrowia lipolytica” (E. I. du Pont de Nemours and Company, priority 2004, dated 2009).
